Molecular target: human ERG potassium channel (human) (UniProt Q12809)
Sequence of UniProt Q12809 (Q12809 whole entry): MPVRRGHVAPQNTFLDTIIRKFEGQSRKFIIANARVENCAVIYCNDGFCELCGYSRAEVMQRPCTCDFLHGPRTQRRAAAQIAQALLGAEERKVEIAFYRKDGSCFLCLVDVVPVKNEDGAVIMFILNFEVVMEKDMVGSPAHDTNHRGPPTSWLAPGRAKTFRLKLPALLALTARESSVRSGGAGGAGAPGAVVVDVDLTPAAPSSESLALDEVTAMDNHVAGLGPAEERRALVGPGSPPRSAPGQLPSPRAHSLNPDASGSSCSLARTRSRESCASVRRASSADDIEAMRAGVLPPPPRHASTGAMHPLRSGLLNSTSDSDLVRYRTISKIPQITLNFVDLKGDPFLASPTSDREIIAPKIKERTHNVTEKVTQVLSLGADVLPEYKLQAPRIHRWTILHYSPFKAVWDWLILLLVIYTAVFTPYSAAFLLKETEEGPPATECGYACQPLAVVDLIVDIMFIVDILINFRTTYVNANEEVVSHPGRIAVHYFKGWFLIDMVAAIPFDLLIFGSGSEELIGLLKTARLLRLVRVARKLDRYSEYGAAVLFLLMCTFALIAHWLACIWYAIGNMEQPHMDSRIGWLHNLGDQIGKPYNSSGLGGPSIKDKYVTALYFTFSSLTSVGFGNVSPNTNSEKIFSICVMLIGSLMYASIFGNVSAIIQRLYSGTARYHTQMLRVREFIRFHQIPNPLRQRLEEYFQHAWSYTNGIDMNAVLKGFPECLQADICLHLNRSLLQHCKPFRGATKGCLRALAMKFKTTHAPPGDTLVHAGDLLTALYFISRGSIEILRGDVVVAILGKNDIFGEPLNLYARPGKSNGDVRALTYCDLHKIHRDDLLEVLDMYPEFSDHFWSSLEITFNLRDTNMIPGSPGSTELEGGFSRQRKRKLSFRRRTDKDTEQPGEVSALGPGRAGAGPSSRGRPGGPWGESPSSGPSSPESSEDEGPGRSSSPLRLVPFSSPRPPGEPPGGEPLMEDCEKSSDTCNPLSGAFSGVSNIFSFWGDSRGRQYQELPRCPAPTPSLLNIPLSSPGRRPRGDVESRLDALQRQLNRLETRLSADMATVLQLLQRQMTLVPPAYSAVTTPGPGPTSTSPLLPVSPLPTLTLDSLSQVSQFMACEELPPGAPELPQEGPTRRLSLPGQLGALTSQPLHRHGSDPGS

B1: recombinant Phα1β (peptide)
chain: MACIPRGEICTDDCECCGCDNQCYCPPGSSLGIFKCSCAHANKYFCNRKKEKCKKA
- IC50 of inhibition of hERG channel activity, thallium flux (FLIPR Potassium Assay) in HEK293-hERG cells: > 900 pmol
- percent inhibition of hERG channel activity, thallium flux (FLIPR Potassium Assay) in HEK293-hERG cells, Phα1β 56-900 pM for 30 minutes; highest value at 900 pM: 13.6%

— publication PMC11748958
